Molecular target: ACE2-ECD-sFc fusion protein (Homo sapiens)
Assay: ELISA, plate coated with ACE2 ECD-sFc

| Substance | EC50 |
| --- | --- |
| S1-RBD-His protein (from UniProt P0DTC2 331-530) (ligand) | 0.4 µg/mL |
| S1-RBD-His-HRP (from UniProt P0DTC2 331-530) (ligand) | 0.19 µg/mL |

From patent US20230109393A1
